B1: 7G3 (antibody, V domains shown)
VH: EVQLQQSGAEFVRSGASVKLSCTASGLNIKDYYIHWVKQRPEQVLDWIGWIDPENGYSEYAPRFQDKATMTADTSSNTAYLHLSSLTSEDTAVYYCNPGELARYFDYWGQGTTLTVSS
VL: DIVLSQSPATLSVTPGDSVSLSCRASQSISKNLHWYQQKSHESPRLLIKYTSQSISGIPSRFSGSGSGTDFTLSINSVETEDFGMYFCQQSISWPLTFGAGTKLELKR
B2: 1D4 (antibody, V domains shown)
VH: QVTLKESGPGILQPSQTLSLTCSFSGFSLRKSVMGVSWIRQPSGKGLEWLAHIYWDDDKYYNPSLKSRLTISKDPSRNQVFLKITSVDTADAATYYCTRRGIRSAMDYWGQGTSVTVSS
VL: SVVMTQTPKFLLVSAGDRVTITCKASQSVSNDVAWYQQKPGQSPKLLIYYASNRYTGVPDRFTGSGYGTDFTFIISTVRAEDLAVYFCQQDYNSPWTFGGGTKLEIKR
B3: 1A6 (antibody, V domains shown)
VH: QVTLKESGPGILKPSQTLSLTCSFSGFSLSTSGMGVSWIRQPSGKGLEWLAHIWWDGDNYYNPSLKSQLTISKDTSRNQVFLRIATVDTADTATYYCARRTRVNYAMDYWGQGTSVTVSS
VL: B2 VL with Y36F, I74T, R79Q
B4: 4B4 (antibody, V domains shown)
VH: B3 VH with F24L, N59S, Y61S, K66R, Q68R, K73R
VL: B2 VL with I21M, Y36F, I74T, R79Q
B5: 1H6 (antibody, V domains shown)
VH: EVKLVESGGGLVQPGGSRKLSCAASGFTFSDYGMVWVRQAPGKGLEWVAYISSGSSTIHYADTMKGRFTISRDNPKNTLFLQMSSLRSEDTAMYYCARRHYYAMDYWGQGTSVTVSS
VL: B2 VL with V2F, S65T, I74T, R79Q, N93T, W96F, G100S
B6: 1D8 (antibody, V domains shown)
VH: QVQLQQSGAELMKPGASVKISCKATGYTFSSYWIEWVKQRPGHGLEWIGDILPGSGSTNYNEKFKDKATFTADTSFNTAYMQLSSLTSEDSAVYYCATRRFRGLDYWGQGTTLTVSS
VL: B2 VL with V2I, P40S, I74T, R79Q, A80P, N93T, W96F, G100S
B7: 3G7 (antibody, V domains shown)
VH: QVQLQQSGAELMKPGASVKISCKATGYTFNDYWIEWVKQRPGHGLEWIGGFSHGSGSTNYNEKFKGKATFTADSSSNTAYMQLSSLTSEDSAVYYCARRRFRGMDYWGQGTSVTVSS
VL: B2 VL with V2I, I74T, S76T, R79Q, N93S, T97S

The values that follow come from US20100047245A1.

Changes are numbered by the printed parent chain.

One experiment deals with recombinant purified human IL-12 p70 (human) (UniProt P29459). The experiment is described as follows: cell-based or functional assay.
recombinant purified human IL-12 p70 (human), sequence (chain, as listed by the source, form in doubt, chain 1 of 2): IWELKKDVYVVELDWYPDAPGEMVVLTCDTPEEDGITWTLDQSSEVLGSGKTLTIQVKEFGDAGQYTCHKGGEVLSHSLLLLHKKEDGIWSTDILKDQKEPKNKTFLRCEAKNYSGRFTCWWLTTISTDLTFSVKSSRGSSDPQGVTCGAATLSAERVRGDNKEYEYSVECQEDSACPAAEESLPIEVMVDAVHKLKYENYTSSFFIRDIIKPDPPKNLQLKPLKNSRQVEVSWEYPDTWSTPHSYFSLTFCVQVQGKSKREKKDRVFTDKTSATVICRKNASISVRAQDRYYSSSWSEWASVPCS
recombinant purified human IL-12 p70 (human), sequence (P29459 23-219, form in doubt, chain 2 of 2): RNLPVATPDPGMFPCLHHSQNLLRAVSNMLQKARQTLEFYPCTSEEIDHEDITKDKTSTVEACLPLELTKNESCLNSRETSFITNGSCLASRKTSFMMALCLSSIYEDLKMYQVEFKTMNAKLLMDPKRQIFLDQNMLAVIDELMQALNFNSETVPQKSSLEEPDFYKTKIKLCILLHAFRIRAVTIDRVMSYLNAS
On to B1, for which the Average IC50 (nM) Human IL-12; PHA blast IFN-gamma induction assay was found to be 0.047 nM.

On to B2, for which the Average IC50 (nM) Human IL-12; PHA blast IFN-gamma induction assay worked out at 0.031 nM.

On to B3, for which the Average IC50 (nM) Human IL-12; PHA blast IFN-gamma induction assay was 0.052 nM.

Consider B4, for which the Average IC50 (nM) Human IL-12; PHA blast IFN-gamma induction assay is 0.039 nM.

With B5, the Average IC50 (nM) Human IL-12; PHA blast IFN-gamma induction assay worked out at 0.69 nM.

Regarding B6, the Average IC50 (nM) Human IL-12; PHA blast IFN-gamma induction assay came to 0.31 nM.

For B7, the Average IC50 (nM) Human IL-12; PHA blast IFN-gamma induction assay was 0.15 nM.

The target is the same in another experiment. The experiment in a line: SPR (Biacore 3000), mAb captured via goat anti-mouse IgG Fc, human IL-12 p70 in solution.
Broadly, the Kd is the equilibrium constant for the complex coming apart. Broadly, the koff is a measure of how fast the partners let go of each other. A word on the kon: it is the rate constant with which the complex forms. B1: the Kd was 0.27 nM, the koff came out at 0.00028 s⁻¹ and the kon stood at 1.1e+06 M⁻¹ s⁻¹.

Regarding B2, the Kd came to 0.12 nM, the koff turned out to be 2.9e-05 s⁻¹ and the kon is 250000 M⁻¹ s⁻¹.

On to B3, for which the Kd stood at 0.23 nM, the koff was determined as 3.5e-05 s⁻¹ and the kon worked out at 150000 M⁻¹ s⁻¹.

On to B4, for which the Kd stood at 0.1 nM, the koff was 1.4e-05 s⁻¹ and the association rate constant (kon) was 130000 M⁻¹ s⁻¹.

On to B5, for which the Kd is 0.25 nM, the koff came out at 9.9e-05 s⁻¹ and the on-rate constant (kon) is 430000 M⁻¹ s⁻¹.

Turning to B6, the Kd turned out to be 0.044 nM, the koff stood at 2.3e-05 s⁻¹ and the kon is 510000 M⁻¹ s⁻¹.

For B7, the Kd was determined as 0.047 nM, the koff worked out at 3.8e-05 s⁻¹ and the on-rate (kon) was found to be 820000 M⁻¹ s⁻¹.
